In the supplement of paper PMC9170038:

Tested on: MS2 coat protein
Assay: apparent KD of MS2 coat protein; designed switch direction (-1 OFF switch, 1 ON switch): -1; higher = weaker reporter binding
Outline: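 The apparent KD reported per design is the median over clusters of curve fits to normalised cluster fluorescence. The RNA switches were transcribed on Illumina chips by stalled E. coli RNA polymerase. SNAP-549-labelled MS2 coat protein was titrated from 0.7 or 1.5 nM, doubling up to 3 µM, in Tris-HCl pH 7.5 buffer containing KCl, MgCl2, BSA, DTT, tRNA and Tween-20, with no input, 200 uM small-molecule ligand, or an oligonucleotide input.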

[1] = Eterna round: R95, input ligand: FMN 200 uM
[2] = Eterna round: R95, input ligand: microRNA oligo, concentration not stated
[3] = Eterna round: R95, input ligand: none
[4] = input ligand: microRNA oligo, concentration not stated

Sequence | apparent KD of MS2 coat protein [2] | apparent KD of MS2 coat protein (input ligand: FMN 200 uM) | apparent KD of MS2 coat protein (input ligand: none) | other results
AAGAAACAUGAGGAUCACCCAUGUGAGGAUAUGAAAAAUAAAAGAAAAGAAAUAAUAAUCAGAAGGCACAAAGG [Mat - Mod of Hog D9] (puzzle: Exclusion 1) | 26.6 nM |  |  | apparent KD of MS2 coat protein [1]: 43 nM; apparent KD of MS2 coat protein [3]: 28.9 nM
AUAAUACAUGUAGGAUAUCUGCACGUGUAGUGCAGAGAAGGACAUGAGGAUCACCCAUGUAAUUAAGAUCAAUUAUUAAAUUAU [ENG1/3-D3] (Eterna round: R96, puzzle: Exclusion NG 1) |  | 228 nM | 75.6 nM | apparent KD of MS2 coat protein [4]: 53.6 nM
CUGAGCAGACGGAGAUCCAACAUGAGGAUCACCCAUGUCUCAAAAGCUUAUUGCUCGUCUUAUCCUCCUCUGUUCAC [Mat - Sensor, turn-off var - Eli Mod - D54] (Eterna round: R97, puzzle: Sensor, turn-off variant 1) |  | 26.9 nM | 26.7 nM | 
AAUCAACAUGAGGAUCACCCAUGUGAGGAUAUAGGCAUGCAUGCAUGCAUGCAUGCAACUAGAAGGCACAAUAC [Design #18] (Eterna round: R97, puzzle: Exclusion 1) |  | 58.2 nM | 37.4 nM | 
AAUUAACAUCAGGAUAUGACUAGCUUCGGCUAGUCAGAAGGGAUGACAUGAGGAUCACCCAUGUGAUCAAUUAA [E6/2-A1] (Eterna round: R97, puzzle: Exclusion 6) |  | 127 nM | 134 nM | 
UUGUUAUAUGUAGGAUAUGCAUAUUAUUAUUAUGCAGAAGGACAUGAGGAUCACCCAUGUAUAUUAUUAUUAUAUAUUAUAUAU [Title] (Eterna round: R96, puzzle: Exclusion NG 1) |  |  |  | apparent KD of MS2 coat protein [4]: 22.4 nM
GGGAAGAACCAACAAGCAAACAUGAGGAUCACCCAUGUAGUAAGAGAAAUUGAGGUGAUUCAGAGAGCUCGACUUAU [AK-miRNA-r3-7.1] (Eterna round: R97, puzzle: Sensor, turn-off variant 1) |  | 367 nM | 359 nM | 
AUGAGGUUAGGAUAUACAUGAGGAUCACCCAUGUUGGAGAAGGAAGUGUAAGUAGCGAGUAGAAGGAACGGAGC [JR_Exclu3_Sub060] (puzzle: Exclusion 3) | 51.1 nM |  |  | apparent KD of MS2 coat protein [1]: 37.5 nM; apparent KD of MS2 coat protein [3]: 48.4 nM
GUGUCUCGUGUAGGAUAUGCGCGAGGUCUUUGUGCAGAAGGACAUGAGGAUCACCCAUGUAUUCCGCGGCGCGGGCAUGUGUCC [-29/-27 Kcal and A 18%] (Eterna round: R96, puzzle: Exclusion NG 1) |  | 249 nM | 52.5 nM | apparent KD of MS2 coat protein [4]: 46.7 nM
GCCUCACUUGAGGAUCACCCAAGUCAGGAUAUUCACUGAGCUGCAUAACAACUCGGCCGAAGAAGGGAUUCGGG [Edlacebe] (Eterna round: R97, puzzle: Exclusion 1) |  | 41.3 nM | 84.9 nM | 
CAGUACUGAGGAUAUACAUGAGGAUCACCCAUGUGUUCCAGCUAGGAAGCUAGCAAAAGUAGAAGGCAGUACUG [salish99_ex3_r3_073] (puzzle: Exclusion 3) | 26.6 nM |  |  | 
ACAAGCGCGAAAGUCUUAUACAUGAGGAUCACCCAUGUUCUCAAGGUCUUAUGUACUGACACGAUUACUCGUCUUAU [AK-miRNA-r3-4] (Eterna round: R97, puzzle: Sensor, turn-off variant 1) |  | 117 nM | 112 nM | 
CUAACAUGCUGGUGAUCAUACAUGAGGAUCACCCAUGUAACAAGCUUUUUGUUCGUCUUAAUUUAAUUGAUUACUAG [Stov1/8-B3] (Eterna round: R97, puzzle: Sensor, turn-off variant 1) |  | 177 nM | 254 nM | 
UUAUUAUAUGUAGGAUAUGCAUAUUGUUGUUAUGCAGAAGGACAUGAGGAUCACCCAUGUAUAUUAUUGUUGUGUAUUAUAUAU [Title] (Eterna round: R96, puzzle: Exclusion NG 1) |  | 57.1 nM | 33 nM | apparent KD of MS2 coat protein [4]: 29.1 nM
UAGAAGCUCAGGGAGUGAGACAUGAGGAUCACCCAUGUGGUGGUAGGGAACAAGCUUUUUGCACGUACUUAUGAGGA [JR_SV3TOV1_Sub006] (puzzle: Sensor v3, turn-off variant 1) | 134 nM |  |  | apparent KD of MS2 coat protein [1]: 367 nM; apparent KD of MS2 coat protein [3]: 189 nM
UUCUUGGCAGGAUAUGCUUUUUUAGACAUGAGGAUCACCCAUGUGUUUAUUUUUUUUUUUGCAGAAGGGCCUUAAU [JR_E5_Sub043] (puzzle: Exclusion 5) | 26.9 nM |  |  | 
GUAACAACUAGAGGAUAUCAGCACGUUUAGUGCUGAGAAGGCUAGAGUUACAUGAGGAUCACCCAUGUCUAGAGAUCAUUAAUU [ENG1/13-A2] (Eterna round: R96, puzzle: Exclusion NG 1) |  | 177 nM | 83.8 nM | apparent KD of MS2 coat protein [4]: 66.3 nM
AAUAACUUAGGAUAUACAUGAGGAUCACCCAUGUCCCACCCGUUACCCAUGACCAUAUGUAGAAGGAAGAAGAA [Exy#8] (Eterna round: R97, puzzle: Exclusion 3) |  | 28 nM | 35.7 nM | 

Sequence | apparent KD of MS2 coat protein [2] | apparent KD of MS2 coat protein (input ligand: FMN 200 uM) | apparent KD of MS2 coat protein (input ligand: none) | other results
UAAUUGAUUAAUAAAUAAUACAUGAGGAUCACCCAUGUAGAUCCUACAUACCAUUUAAGUAGCUCGUCUUAUUAUUA [Sensor-V1 #62] (Eterna round: R97, puzzle: Sensor, turn-off variant 1) |  | 217 nM | 213 nM | 
CUUAUGUGAGGAUAUGCCUGGCCGUGAGGCCAAAUUGAAUUGCAGAAGGCACAUGAGGAUCACCCAUGUGCGGG [jl-ex4-4.66 ViennaUCT mod] (Eterna round: R97, puzzle: Exclusion 4) |  | 201 nM | 50.2 nM | 
CGGGAGGAAGGAUAUACACGGCCUCCUAGAAUAAAUCCUGGACAUGAGGAUCACCCAUGUAGAAGGUCCACCGA [Tiuslala] (puzzle: Exclusion 2) | 17.3 nM |  |  | 
AACCAUGAAGGAUAUGACUUAACGAACAUGAGGAUCACCCAUGUGACCGAGCAGUGUUGAUCAGAAGGUUAAGGUG [Rier] (puzzle: Exclusion 5) | 83.7 nM |  |  | apparent KD of MS2 coat protein [1]: 101 nM; apparent KD of MS2 coat protein [3]: 139 nM
UUUAUAUAGUAAGGAUAUGUAUUAUUUUUUACAACAGAAGGUACUGACAUGAGGAUCACCCAUGUUUUAGUGUGGGCAUGUAGU [JMF's solution 100] (Eterna round: R96, puzzle: Exclusion NG 1) |  |  |  | apparent KD of MS2 coat protein [4]: 217 nM
UCUCGCGGGCAAGGAUAUCCCACGCUGUUCUGGCCCGUGUUUGUUACAUGAGGAUCACCCAUGUGGGAGAAGGUGCACCAGGGC [Design 42] (Eterna round: R96, puzzle: Exclusion NG 2) |  | 218 nM | 168 nM | apparent KD of MS2 coat protein [4]: 96.3 nM
AGUAACAGAGGAUAUACUAUUUUAUGUGUUUGUUAUUUUAAACAUGAGGAUCACCCAUGUAGAAGGCUGAAUGA [JMF 100] (puzzle: Exclusion 2) | 23.5 nM |  |  | 
GCAUGAAAUGUGAGGAUAUACCUCUGGAUACAUAGGUAGAAGGCACAUGAGGAUCACCCAUGUCCUAAACAUGC [Fiskers BMX 4 - 27] (puzzle: Brourd's mod of Exclusion 4) | 32.2 nM |  |  | 
UUUAAGGGAAUUAAGAUCACAUGAGGAUCACCCAUGUAUAUAUAGGAUAUCAGCUCGUGUAGAGCUGAGAAGGAUAUAUACAUA [ExNG3/6-A3] (Eterna round: R96, puzzle: Exclusion NG 3) |  | 101 nM | 132 nM | apparent KD of MS2 coat protein [4]: 32.8 nM
CAGUACUGAGGAUAUACAUGAGGAUCACCCAUGUGCUCAAAGUAGGAUACUACUAUUAGUAGAAGGCAGUACUG [Fiskers Ex 3 828 mod 21] (puzzle: Exclusion 3) | 23.5 nM |  |  | 
UUUAAUUUUUUUUUUUUACAAGCUUUUUGCUCGUCUUAUACAUGAGGAUCACCCAUGUGGGUAGAAGAUAAAUUAUC [JMF 6] (puzzle: Sensor v3, turn-off variant 2) | 81.8 nM |  |  | apparent KD of MS2 coat protein [1]: 46.4 nM; apparent KD of MS2 coat protein [3]: 37.4 nM
ACAGUGCGAGGAUAUACAUGAGGAUCACCCAUGUGAGAGAAAUAAGUGAGGAAGAAAAGUAGAAGGCGCGUUGA [Mat - Exclusion 3 - Mod of Salish D70] (puzzle: Exclusion 3) | 45.8 nM |  |  | 
ACCUCACAUGAGGAUCACCCAUGUUAGGAUAUCUCGAUGCUCCGCGGGCGGGAGCAUCAGAGAAGGAACGUGCA [Geusarvees] (puzzle: Exclusion 1) | 18.3 nM |  |  | 
AUAUAGCGAGGAUAUACAUGAGGAUCACCCAUGUGGUAGUAGAUACAGUAGAGAUAGAGUAGAAGGCGCUAUGA [EX3 #7] (Eterna round: R97, puzzle: Exclusion 3) |  | 416 nM | 79.2 nM | 
CCCACAUGAGGAUAUCCAUCUGGAUCAGACAAGAUCCUGAUGGAGAAGGUACAUGAGGAUCACCCAUGUGUGGG [Mat - Exclusion 4 - Eli Mod - D60] (Eterna round: R97, puzzle: Exclusion 4) |  | 189 nM | 267 nM | 
UUUAAUUUUUUUUUUUUACAAGCUUUUUGCUCGUCUUAUACAUGAGGAUCACCCAUGUGGGUGGGAGAUAAAUUAUC [JMF 24] (puzzle: Sensor v3, turn-off variant 2) | 59.3 nM |  |  | apparent KD of MS2 coat protein [1]: 88.6 nM; apparent KD of MS2 coat protein [3]: 341 nM
UUAAUUAAUGUGAGGAUAUCUAGAGCCUCGGCUCUAGAGAAGGCACAUGAGGAUCACCCAUGUCUCAAUUAAUU [BmEx4/2-E2] (Eterna round: R97, puzzle: Brourd's mod of Exclusion 4) |  | 33.9 nM | 23.6 nM | 
